# ± gives the uncertainty stated by the source.
# Test: protein stability index of a GFP-peptide fusion (yeast GPS) (PSI 1-4); higher = more stable; sorted into four equal gates, so the index is relative within each strain
# Method in brief: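 Yeast carrying a pooled library were grown to mid-log phase in leucine-free medium. Each library plasmid expresses Cherry and has a tiled 17-residue yeast protein peptide fused downstream of GFP. Cells were sorted into four equal gates by GFP/Cherry ratio, and plasmids from each gate were PCR-amplified, Illumina-sequenced and assigned to strains by barcode. Summing, across gates, the read frequency times the gate number gave each peptide's protein stability index.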
Sequence,protein stability index (doa10∆),protein stability index (pdr5∆),protein stability index (san1∆),protein stability index (ubr1∆)
QQQQQFRHHVQIQQQQQ [SNF5],1.3 ± 0.033,1.76 ± 0.036,1.45 ± 0.086,1.32 ± 0.025
HADKDTFSSSISTYIST [POP8],2.61 ± 0.045,2.58 ± 0.037,2.41 ± 0.048,2.69 ± 0.046
ENNRLLFECRTCSYVEE [RPB9],3.12 ± 0.13,3.2 ± 0.14,3.04 ± 0.17,3.29 ± 0.16
SAQQNLASSFVNGFLNL [RPN1],2.73 ± 0.094,2.54 ± 0.067,3.1 ± 0.059,2.75 ± 0.068
DELSSKELVECHLYSQR [NNF1],2.05 ± 0.056,2.33 ± 0.052,2.13 ± 0.094,2 ± 0.04
QLIKVAVHNGGRKHVAA [RPL9A],2.47 ± 0.091,2.85 ± 0.087,2.66 ± 0.097,2.72 ± 0.03
YFKSILLNKNTGNNLYD [SWI1],2.59 ± 0.048,2.42 ± 0.036,2.04 ± 0.05,2.19 ± 0.031
EIALKGLESLLNIGLGA [YCS4],2.65 ± 0.11,2.47 ± 0.092,3.03 ± 0.13,2.77 ± 0.21
LQDVIALSIADDASSAE [RPC53],2.47 ± 0.11,1.57 ± 0.079,2.16 ± 0.17,2.81 ± 0.077
NIFSEAVKNKYNVGKQL [PRP28],1.55 ± 0.085,2.43 ± 0.11,1.82 ± 0.14,2.37 ± 0.076
NTAFGNSNPTSNVFGSN [YJL041W/NSP1],3.06 ± 0.13,3.6 ± 0.17,–,3.6 ± 0.16
HEVEEILNELQPNARAL [SMC1],3.09 ± 0.13,3.4 ± 0.12,3.1 ± 0.099,3.44 ± 0.069
CSKSIPKDKAIKRMAIR [RPS26A],2.8 ± 0.069,2.96 ± 0.073,2.73 ± 0.065,2.85 ± 0.046
RKALPKEPKKLLPNSKN [DSN1],2.55 ± 0.063,2.69 ± 0.071,2.69 ± 0.084,2.87 ± 0.05
ATLQSNEPTQKDEEETE [DSN1],3.21 ± 0.16,3.18 ± 0.12,3.17 ± 0.1,2.79 ± 0.1
QDVDFYKNLDRGFSKDL [RRP6],3.44 ± 0.13,3.75 ± 0.15,3.25 ± 0.074,3.23 ± 0.097
WKNLVLKLSQAFGSSAT [YJR042W/NUP85],2.58 ± 0.055,1.95 ± 0.053,2.22 ± 0.055,1.93 ± 0.044
PHLIIQNHNSKSTDNSA [IRR1],2.71 ± 0.047,2.88 ± 0.057,2.81 ± 0.05,2.78 ± 0.034
SFLDRKRAKEFITTLLK [SIN4],2.35 ± 0.048,2.21 ± 0.06,2.21 ± 0.061,2.08 ± 0.042
ALDTNGTSATTETLTSK [SIR4],2.22 ± 0.076,2.19 ± 0.066,2.9 ± 0.065,1.93 ± 0.045
KRQLIKERNQKFQLQNQ [YIL149C/MLP2],2.75 ± 0.096,3.17 ± 0.11,2.99 ± 0.059,2.78 ± 0.05
EKVFNAYPAAREQFLNA [FAS1],3.16 ± 0.084,3.19 ± 0.094,3.1 ± 0.077,3.22 ± 0.053
EGDGAKAAISFGAKPEE [YJL041W/NSP1],3.21 ± 0.1,3 ± 0.087,3.43 ± 0.082,3.43 ± 0.053
PSAGPHKLRESLPLIVF [RPS4A],1.76 ± 0.048,1.75 ± 0.045,1.69 ± 0.087,2.05 ± 0.046
VIKLAKYPDYFPEWKKS [ARP9],3 ± 0.098,2.94 ± 0.091,2.82 ± 0.064,3.27 ± 0.13
SPFLMGHPMTKSVYETP [SEC65],2.28 ± 0.067,2.55 ± 0.068,2.83 ± 0.083,2.68 ± 0.052

Sequence,protein stability index (doa10∆),protein stability index (pdr5∆),protein stability index (san1∆),protein stability index (ubr1∆)
LQLNEAEEFVAGVSHGT [SMX3],3.36 ± 0.25,2.96 ± 0.23,3.01 ± 0.28,3.41 ± 0.11
IESIVNLAPKLRNVFLG [GRR1],1.94 ± 0.13,1.41 ± 0.085,1.26 ± 0.14,1.42 ± 0.064
SLSVVAGKWSSKYLIKQ [ECM29],–,2.19 ± 0.18,2.15 ± 0.17,2.39 ± 0.095
FSSLAISEINFLHESSF [CSI1],2.21 ± 0.038,2.56 ± 0.035,2.26 ± 0.047,2.53 ± 0.039
TRHQNTIHAKRKIVFRC [RPN4],2.75 ± 0.052,2.85 ± 0.059,2.8 ± 0.07,2.64 ± 0.052
RKILESSNIVNENDSQA [YIL149C/MLP2],–,2.88 ± 0.14,2.89 ± 0.085,–
LVSSYLNKSDLLDKYGK [YML103C/NUP188],2.87 ± 0.091,3.13 ± 0.058,3.17 ± 0.053,2.89 ± 0.065
KIGDLGLARKFHNMLQT [SSN3],2.9 ± 0.085,3.14 ± 0.1,3.23 ± 0.058,3.37 ± 0.045
FKKDFEVNISSLDAREA [RPC40],2.07 ± 0.059,1.58 ± 0.067,1.98 ± 0.1,2.16 ± 0.092
LNVVMKNLERLRGEYND [SMC4],3.26 ± 0.092,3.49 ± 0.11,3.37 ± 0.068,3.66 ± 0.13
KDEYLAQLDGRIGVLQA [NSL1],2.08 ± 0.064,2.4 ± 0.046,2.41 ± 0.074,2.99 ± 0.046
SFVGDYMHDTELNYFVG [GRR1],3.1 ± 0.068,3.04 ± 0.09,3.35 ± 0.061,3.22 ± 0.067
PKKFGGKGARSRFQKSY [RPS16A],3.22 ± 0.12,3.31 ± 0.11,3.31 ± 0.13,2.93 ± 0.1
MPPKKSWRNITNLSGGE [SMC4],2.69 ± 0.12,2.85 ± 0.14,2.64 ± 0.12,2.96 ± 0.1
TNLGQPHSLATKTTGKC [RPS2],2.44 ± 0.13,2.69 ± 0.13,2.38 ± 0.088,2.5 ± 0.11
QLSNWQKIRNSEGISEA [ITC1],2.94 ± 0.06,2.96 ± 0.083,2.97 ± 0.065,2.8 ± 0.073
LFGSKPQGSTTNGGLFG [YGR119C/NUP57],3.38 ± 0.086,3.47 ± 0.067,3.43 ± 0.045,3.28 ± 0.037
EYEELKEKIEKLSKSAT [SMC1],3.33 ± 0.12,3.09 ± 0.22,2.98 ± 0.079,3.08 ± 0.073
AARVDIGQIIFSVRTKD [RPL10],1.74 ± 0.078,1.67 ± 0.081,2.78 ± 0.12,2.04 ± 0.057
EGDASPFTDITVEGISK [RPB2],3.17 ± 0.14,2.97 ± 0.17,3.08 ± 0.092,3.07 ± 0.21
ARIIAAIPNPEDVVAIS [RPS0A],1.8 ± 0.071,2.14 ± 0.083,2.34 ± 0.091,2.31 ± 0.083
LHANGASFFFMVMFMHM [COB],1.75 ± 0.037,1.36 ± 0.028,1.37 ± 0.065,1.38 ± 0.036
KVLNEISKTTLTLDPRY [RPN3],2.88 ± 0.085,2.99 ± 0.055,2.89 ± 0.05,3.2 ± 0.069
STLYKYLKESKRKYDEI [SWI3],3.51 ± 0.12,3.42 ± 0.24,3.21 ± 0.17,2.84 ± 0.15
HGVLQGTSQNYGTATAD [MED1],3.2 ± 0.091,3.13 ± 0.076,2.96 ± 0.078,3.14 ± 0.052

# From the supplement of paper PMC9732359
